# Source: patent US20230390371A1, “ANTI-TUMOR IMMUNITY INDUCES THE PRESENTATION OF ABERRANT PEPTIDES” (STICHTING HET NEDERLANDS KANKER INSTITUUT-ANTONI VAN …, priority 2020, published 2023)
# B1: IFNγ: interferon gamma (PeproTech), used at 250 U/mL (protein, UniProt P01579 24-161, looked up)
# Interferon gamma: QDPYVKEAENLKKYFNAGHSDVADNGTLFLGILKNWKEESDRKIMQSQIVSFYFKLFKNFKDDQSIQKSVETIKEDMNVKFFNSNKKKRDDFEKLTNYSVTDLNVQRKAIHELIQVMAELSPAAKTGKRKRSQMLFRG
# Legend:
# [1] = system: MD55A3 melanoma cells; experiment: V5-ATF4(1-63)-His frameshift reporter, His-tag pulldown and V5-tag immunoblotting; assay type: cell-based, human; details: IFNγ treatment vs control, MD55A3 cells
# Source text: FIG. 3: W-Bumps are associated with disordered out-of-frame peptides, and shortage in tryptophan leads to frameshifting events. • (a) Bar-plots depicting total occurrences of alpha-helices, beta-sheets and turns for tryptophan-containing peptide sequences corresponding to W-Bumps (left) and all remaining peptide sequences (middle), and the difference in percentages (right). […] Tryptophan shortage, on the other hand, can lead to stalling on the tryptophan codon (bottom left panel), or could in theory induce frameshifting events, leading to aberrant peptide production (lower right panel). Since secondary structure of growing polypeptide chains is attained in the lower tunnel of the ribosome, the loss of an a-helical secondary structure in this tunnel could hamper ribosomal progression. (c) Line-plots depicting the probability of disorderedness of peptide sequences. The position of the tryptophan is indicated by the dashed line. […] The green line represents the average probability of disorderedness of all peptides (‘All tryptophan codons’, n=36508). A group of outlier candidates that show relatively ordered out-of-frame peptide sequences were selected for comparisons (‘Selected tryptophan codons’, n=94, red). (d) Line-plots depicting mean frequency of RPFs at single nucleotide resolution across all tryptophans (green) and the selected outlier set (red) from panel 3c. […]
# [2] = system: MD55A3 cells expressing the out-of-frame tGFP+1 reporter gene; experiment: 2D-LC MS/MS full proteome, out-of-frame tGFP+1 reporter; assay type: cell-based, human; details: IFNγ-treated vs control MD55A3 cells, +1 out-of-frame tGFP
# Protocol: For deeper proteome coverage in search of IFNγ-induced frameshifts, IFNγ- or mock treated melanoma cells were lysed and digested as described above, after which dried digests were subjected to basic reversed-phase (HpH-RP) high-performance liquid chromatography for offline peptide fractionation. 250 μg peptides were reconstituted in 95% 10 mM ammonium hydroxide (NH4OH, solvent A)/5% (90% acetonitrile (ACN)/10 mM NH4OH, solvent B) and loaded onto a Phenomenex Kinetex EVO C18 analytical column (150 mm×2.1 mm, particle size 5 μm, 100 Å pores) coupled to an Agilent 1260 HPLC system equipped with a fraction collector. […] All fractions were analyzed by nanoLC-MS/MS on an Orbitrap Fusion Tribrid mass spectrometer equipped with an Easy-nLC1000 system (Thermo Scientific) as described previously^72. […]
# Further, the MS data was analyzed by MaxQuant (version 1.6.0.16)74. […] The in-frame protein expression data was further normalized and analyzed using DEP^76, For the frame-shift proteome analysis, the MS data was analyzed by MaxQuant (version 1.6.0.16)^74 with LFQ normalization, and then was scanned against the trans-frame polypeptide database together with the SWISSPROT proteins with Evidence level of 1. […] Only the peptides reproducibly detected across replicates were retained for further analysis, and the list included reverse peptide hits (n=41) (FIG. 4c). […]
molecule,measurement,setting,value
B1,His-tag pulldown of +1 and +2 reporter proteins (frameshifting events),[1],partially pulled down
same,induction of tGFP reporter peptide expression,[2],> 30 fold
